Experimental data taken from patent CN117924490A (CHINA RESOURCES BIOMEDICAL CO LTD, dated 2024).

Experiments:
[1] = target: T1, IL-4Rα on HEK293-hSTAT6/5×STAT6-Luc cells (UniProt P24394 26-825, limits assumed); assay: cell-based or functional assay
T1 sequence (looked up): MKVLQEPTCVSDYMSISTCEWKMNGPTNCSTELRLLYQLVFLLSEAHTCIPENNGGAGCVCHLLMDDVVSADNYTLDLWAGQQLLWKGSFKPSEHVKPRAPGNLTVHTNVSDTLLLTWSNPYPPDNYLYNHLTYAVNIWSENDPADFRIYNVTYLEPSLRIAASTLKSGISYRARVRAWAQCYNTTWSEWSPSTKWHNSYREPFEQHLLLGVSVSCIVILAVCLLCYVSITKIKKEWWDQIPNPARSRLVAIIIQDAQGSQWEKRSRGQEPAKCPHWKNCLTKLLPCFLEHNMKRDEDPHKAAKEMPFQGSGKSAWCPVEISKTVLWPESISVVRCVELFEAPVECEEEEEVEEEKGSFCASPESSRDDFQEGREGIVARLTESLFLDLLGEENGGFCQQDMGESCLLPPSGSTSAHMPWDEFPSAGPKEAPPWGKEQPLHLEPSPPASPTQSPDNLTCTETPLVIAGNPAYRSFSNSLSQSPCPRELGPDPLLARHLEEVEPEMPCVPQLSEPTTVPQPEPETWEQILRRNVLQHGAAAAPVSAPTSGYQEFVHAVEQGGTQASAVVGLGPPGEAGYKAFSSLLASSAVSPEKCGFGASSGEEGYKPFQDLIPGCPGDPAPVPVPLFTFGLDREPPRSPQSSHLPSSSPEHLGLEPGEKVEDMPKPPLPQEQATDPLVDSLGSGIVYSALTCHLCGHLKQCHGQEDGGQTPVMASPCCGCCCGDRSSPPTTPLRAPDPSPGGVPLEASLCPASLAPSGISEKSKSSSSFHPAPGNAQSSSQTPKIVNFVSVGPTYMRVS

[2] = target: T2, 人IL-4R表达于HEK293-IL-4R细胞表面 (human IL-4R on the surface of HEK293-IL-4R cells) (human, UniProt P24394 26-825); assay: FACS on HEK293-IL-4R cells, FITC anti-human IgG, MFI
T2 construct: whole, on cells; The construct in the HEK293-IL-4R line is not described; also called 人IL-4R过表达细胞; 细胞表面IL-4R
T2 sequence (looked up): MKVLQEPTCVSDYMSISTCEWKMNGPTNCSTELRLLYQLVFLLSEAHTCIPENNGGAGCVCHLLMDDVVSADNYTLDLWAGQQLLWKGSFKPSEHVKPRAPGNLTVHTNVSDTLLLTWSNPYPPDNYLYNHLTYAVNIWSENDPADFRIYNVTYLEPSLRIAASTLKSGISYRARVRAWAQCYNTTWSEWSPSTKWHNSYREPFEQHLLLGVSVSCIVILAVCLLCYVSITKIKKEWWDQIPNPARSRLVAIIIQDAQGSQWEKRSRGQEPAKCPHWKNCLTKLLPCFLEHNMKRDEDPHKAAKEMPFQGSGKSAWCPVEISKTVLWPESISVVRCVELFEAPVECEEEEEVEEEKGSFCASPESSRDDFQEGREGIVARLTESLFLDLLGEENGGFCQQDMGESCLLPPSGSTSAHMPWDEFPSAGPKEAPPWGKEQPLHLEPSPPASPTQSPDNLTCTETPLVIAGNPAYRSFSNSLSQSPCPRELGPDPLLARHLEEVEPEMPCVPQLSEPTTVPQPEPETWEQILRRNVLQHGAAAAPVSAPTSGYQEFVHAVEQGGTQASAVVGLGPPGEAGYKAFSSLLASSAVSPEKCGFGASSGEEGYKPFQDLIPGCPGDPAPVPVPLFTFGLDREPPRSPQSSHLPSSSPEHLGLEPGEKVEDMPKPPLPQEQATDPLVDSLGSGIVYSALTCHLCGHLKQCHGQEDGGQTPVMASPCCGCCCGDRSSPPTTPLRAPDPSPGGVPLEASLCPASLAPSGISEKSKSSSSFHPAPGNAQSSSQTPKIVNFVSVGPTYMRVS

[3] = target: T3, IL-4R蛋白 (Acrobiosystems, IL-H5221) (human, UniProt P24394 26-232); assay: BLI (Octet RH96), antibody captured on AHC2 probes, IL-4R protein in solution, 1:1 model
T3 construct: The two catalogue numbers differ by one letter, likely a misprint; also called Human IL4R Protein, His Tag (Acro, ILR-H5221); 人IL 4R
T3 sequence (looked up): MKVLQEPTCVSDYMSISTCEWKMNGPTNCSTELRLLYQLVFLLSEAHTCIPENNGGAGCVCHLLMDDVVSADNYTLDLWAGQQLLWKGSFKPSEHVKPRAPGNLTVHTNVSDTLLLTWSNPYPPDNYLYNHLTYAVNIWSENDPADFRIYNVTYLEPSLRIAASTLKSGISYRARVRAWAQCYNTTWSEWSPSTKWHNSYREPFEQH

[4] = target: T2, 人IL-4R表达于HEK293-IL-4R细胞表面 (human IL-4R …); assay: FACS competition: blocking of biotinylated human IL-4 binding to HEK293-IL-4R cells, PE streptavidin, MFI

抑制IL-4诱导的HEK293-hSTAT6/5×STAT6-Luc细胞中STAT6磷酸化活性 (luciferase reporter, IL4 protein 40ng/mL) IC50 [1]: 92.7 nM
抑制IL-13诱导的HEK293-hSTAT6/5×STAT6-Luc细胞中STAT6磷酸化活性 (luciferase reporter, IL-13 protein 10ng/mL) IC50 [1]: 5.6 nM
EC50 [2]: 0.334 µg/mL
Kd [3]: 0.341 nM
IC50 [4]: 0.075 µg/mL
B1: 65G5 (antibody, human IgG1, kappa, V domains shown)
VH: EVKLVESGGALVQPGGSLKLSCAASGFTFNSYGMSWVRQTPDKRLELVAVISSDGAYTYYPDSMKGRFTISRDNAKSSLYLQMSSLQSEDTAMYYCTLITTWYFDVWGAGTTVTVSS
VL: DIQMTQSSSSFSVSLGDRVTITCKASEELYNRLAWYQQKPGNAPRLFISGATTLETGVPSRFSGSGSGKDYTLSITSLQTEDVATYYCQQYWSSPYTFGGGTKLELKR
notes: also called 抗人IL-4R抗体; 抗IL-4R抗体
